The text below walks through data of PMC7108872 (Nature structural & molecular biology, 2019).

The experiment concerns the target bovine β-arrestin 1 (1–393) (bovine, UniProt P17870). As to the kind of experiment: cryo-EM structure.

Chain of bovine β-arrestin 1 (1–393) (P17870 1-393): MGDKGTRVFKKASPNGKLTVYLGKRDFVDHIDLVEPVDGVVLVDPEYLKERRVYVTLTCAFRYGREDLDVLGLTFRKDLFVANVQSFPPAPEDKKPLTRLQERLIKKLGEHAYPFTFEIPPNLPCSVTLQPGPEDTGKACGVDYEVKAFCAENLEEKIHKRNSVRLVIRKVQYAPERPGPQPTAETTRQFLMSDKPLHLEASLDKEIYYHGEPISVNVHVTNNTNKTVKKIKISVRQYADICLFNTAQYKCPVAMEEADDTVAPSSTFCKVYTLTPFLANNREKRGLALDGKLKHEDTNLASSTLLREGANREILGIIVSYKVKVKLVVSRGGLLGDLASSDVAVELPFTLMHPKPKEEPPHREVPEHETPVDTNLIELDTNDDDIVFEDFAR

B1: Nanobody 32 (VHH)
VHH: QVQLQESGGGLVQAGGSLRLSCVVSGFFFDTVTMAWYRRAPGKHRELVASATAGGTTTYADSVKDRFTISRDNAKNTVYLQMNSLKPEDTAVYYCNTFVRSLSWGQGTQVTVSS
For B1, the binding result is listed as “binds”.
